Patent US5677146, “Human amyloid protein precursor homolog and kunitz-type inhibitor” (Zymogenetics, Inc., dated 1997)

How the values were obtained:
bovine trypsin = bovine trypsin (bovine, UniProt P00760); experiment: affinity chromatography of yeast supernatant on bovine trypsin coupled to CNBr-activated Sepharose
[1] = target: recombinant human Factor VIIa (300 nM), Novo Nordisk A/S (human, UniProt P08709); experiment: cell-based or functional assay
[2] = target: T1, human Factor XIIa (30 nM) (human, UniProt P00748); experiment: cell-based or functional assay
T1 sequence 1: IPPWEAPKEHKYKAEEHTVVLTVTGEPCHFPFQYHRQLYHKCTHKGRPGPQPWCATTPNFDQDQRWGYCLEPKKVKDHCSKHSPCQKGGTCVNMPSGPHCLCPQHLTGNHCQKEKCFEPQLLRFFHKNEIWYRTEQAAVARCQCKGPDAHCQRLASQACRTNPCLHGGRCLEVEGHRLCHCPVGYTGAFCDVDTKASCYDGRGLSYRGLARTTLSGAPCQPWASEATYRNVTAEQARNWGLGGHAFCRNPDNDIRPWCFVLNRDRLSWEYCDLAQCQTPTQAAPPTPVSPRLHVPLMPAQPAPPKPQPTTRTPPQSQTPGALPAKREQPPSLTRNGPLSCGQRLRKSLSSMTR
T1 sequence 2: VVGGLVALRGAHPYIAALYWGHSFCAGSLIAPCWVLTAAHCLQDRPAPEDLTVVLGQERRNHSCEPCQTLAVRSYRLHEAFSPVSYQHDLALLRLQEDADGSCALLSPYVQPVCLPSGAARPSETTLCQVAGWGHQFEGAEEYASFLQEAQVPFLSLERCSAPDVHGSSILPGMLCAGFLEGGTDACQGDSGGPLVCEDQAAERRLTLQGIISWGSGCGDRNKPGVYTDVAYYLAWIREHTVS

[3] = target: recombinant human activated protein C (5 nM), Novo Nordisk A/S (human, UniProt P04070); experiment: cell-based or functional assay
human Factor XIa (1 nM) = human Factor XIa (1 nM) (human, UniProt P03951); experiment: cell-based or functional assay
human Factor Xa (3 nM) = human Factor Xa (3 nM) (human, UniProt P00742); experiment: cell-based or functional assay

B1: Kunitz-type inhibitor domain of the amyloid protein precursor (other)
chain: EVCSEQAETGPCRAMISRWYFDVTEGKCAPFFYGGCGGNRNNFDTEEYCMAVCGSA
binding result (bovine trypsin): binds
% Inhibition [1]: 7%
% Inhibition [2]: 8%
% Inhibition [3]: 1%
% Inhibition (human Factor XIa (1 nM)): 100%
% Inhibition (human Factor Xa (3 nM)): 29%
